The data set in a line: yeast display, Sf9 membrane polyspecificity reagent, FACS + sequencing; frameworks hold sequencing errors. In short, it runs like this:
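Synthetic nanobody libraries on Saccharomyces cerevisiae BJ5465 were galactose-induced for 36–48 hours, stained 1 hour at 4 °C with 10% biotinylated, detergent-solubilized Sf9 membrane reagent and enriched on streptavidin microbeads. FACS then separated cells into low and high (top ~1%) gates by anti-HA (expression) and streptavidin (reagent binding) fluorescence. Genes were colony-PCR amplified, MiSeq 2 × 250 sequenced and CDR-length filtered. A clone's polyreactivity label is that of its gate of origin.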
Regarding “QVQLVESGGGFVQAGGSLRLSCAASGNIFPYNAMGWYRQAPGKERELVAAISSGGSTNYADSVKGRFTISRDNAKNTVYLQLNSLQPEDTAVYYCAAARSGGYDYWGQGTQVTVSS”, the “polyreactivity (PSR sort gate)” value is given as “low polyreactivity”.
With “QVQLEESGGGLVQAGGSLRLSWAASGSTFQSYAMGWYRQAPGKERELVAVIDSGGRTYYADSVKGRFTISRDNAKNTVYLQMNSLKPEDTAVYYCATVPGYSLYDLIVYWGQGTQVTVSS” the entry was “high polyreactivity”; with “QVQLVESGGGLVQAGGSLRLSCDASGFTFKTNAMGWYRQAPGKERELVAAINRSGGSTYYADSVKGRFTISRDNAKNTVYLQMNSLKPEDTAVYYCATRSYLPGVRRGYDYWGQGTQVTVSS”, “high polyreactivity”; with “QVQLVESGGGLVQAGGSLRLSCAASGSIVSYYAMGWYRKAPGKERELVAAISKSGGRTYYADSVKGRFTISRDNAKNTVYLQMNSLKPEDTAVYYCAAPATYKYEYWGQGTQVTVSS”, “high polyreactivity”.
With “QVQLVESGGGLVQAGGSLRLSCAASGSIFGPYVMGWYRQAPGKERELVAAITFSGGSTYYADSVKGRFTISRDNAKNTVYLQMNSLKPEDTAVYYCNARPYSYRGSKRMYYWGQGTQVTVSS” the entry was “high polyreactivity”; with “QVQLVESGGGLVQAGGSLRLSCAASGSIFADYAMGWYRQAPGKERELVAVITSSGGSTNYADSVKGRFTISRDNAKNTVYLQMNSLKPEDTAVYYCNRRPYPSYDYWGQGTQVTVSS”, “low polyreactivity”; with “QDQLVESGGGLVQAGGSLRLSCAASGRIFKSYAMGWYRQAPGKERELVAAIGSRTYYADSVKGRFTISRDNAKNTVYLQMNSLKPEDTAVYYCAVEVWGNSKRYYYWGQGTQVTVSS”, “high polyreactivity”.
With “QVQLVESGGGLVQAGGSLRLSCAASGRTFNINALGWYRQAPGKERELVAAITWTGGGNTYYADSVKGRFTISRDNAKNTVYLQMNSLKPEDTAVYYCNADGRNYFYEGFWEGNYWGQGTQVTVSS”, the “polyreactivity (PSR sort gate)” value is “low polyreactivity”.
With “QVQLVESGGGLVQAGGSLRLSSAASGFIIVFYAMGWYRQAPGKERELVAAITWSGGGTYYADSVKGRCTISRDNAKNTVYLQMNSLKPEDTAVYYCNAEEPQYYYVLDKLYDFWGQGTQVTVSS” the entry was “low polyreactivity”.
Turning to “QVQLEESGGGLVQSGGSLRLSCAASGSIFYGYTMGWYRQAPGKEMEFVAAITGSGGSTYFADSVKGRFTISRDNAKKTVYLQMNSLKPEDTSVYYCAARRYVNRRYDYWGQGTQVTVSS”, the “polyreactivity (PSR sort gate)” value is “high polyreactivity”.
The same measure for “QVQLVESGGGLVQAGGSLRLSCAASGSIFTYYVMGWYRQAPGKERELVAAITISGGSTYYADSVKGRFTISRDNAKITVYLQMKSLKPEDTAVYYCAAEEVYYEADGFQYSYDYWGQGTLVTVSS”: “high polyreactivity”; for “QVQLVESGGGLVQAGGSLRLSCAASGRTFSYNAMGWYRQAPGKERELVAVISASGGRTNYADSVKGRFTISRDNAKNTVYLQMNSLKPEDTAVYYCNALFGLGVKGYDYWGQGTQVTVSS”: “low polyreactivity”; for “QDQLVESGGGLVQAGGSLRLSCAASGSTFGFNAMGWDRQAPGKERELVAAITWSGGSTYYADSVKGRFTISRDNAKNTVYLQMNSLKPEDTAVYYCARETYGDYVHYDYWGQGTQVTLSS”: “low polyreactivity”.
With “QVQLVESGGGLLQAGGSLRLSCAASGSTFGFYALGWFRQAPGKERELVAAISSGGTSTYYADSVKGRFTISRDNAKTTVYLQMNSVIPEDTAVYYCNSDTFQYPSTYDYWGQGTQVTVSS” the entry was “low polyreactivity”; with “QVQLVDSGGGLVQAGGSLRLSCAASGSTFVQYAMGWYRPAPGKERELVAAISTGGSTNYADSVKGRFTISRDNAKNTVYLEMNSLKPEDTAVYYCNVAVWTIVQSLYPYDYWGQGTQVTVSS”, “low polyreactivity”; with “QVQLVESGGGLVQAGGSLRLSCAAAGFIFRYYAMGWYRPAPGKVRELVAAITNSGVSTYYADSVKGRFTISRDNAKNTVYLQMNRLKPEDTAVYYCAATYRTRTSQYDYWGQGTQVTVSS”, “high polyreactivity”.
The same measure for “QVQLVESGGGLVQAGGSLRLSCAASGGTFARNTMGWYRQAPGKERELVAAITRGGSSTYYADSVKGRFTISRDNAKNTVYLQMNSLKPEDTAVYYCNKSLRWRYPYYGTTGRYDYWGQGTQVTVSS”: “high polyreactivity”; for “QVQLVESGGGLVQAGGSLRLSFDASGLIFYYYTMGWYRPAPGKERELVAAITWTDVDTYYADSVKGRFTISRDNAKNTVYLQMNSLKPEDTAVYYCAAEGGRTSYGGSGELDYWGQGTQVTVSS”: “high polyreactivity”; for “QVQLVESGGGLVQAGGSLRLSCAASGITFGPYAMGWYRQAPGKERELVAAISYSGGRTYYADSVKGRFTISRDNAKNTVYLQMNSLKPEDTAVYFCARRYGYFGYEYDYWGQGTQVTVSS”: “high polyreactivity”.
“QVQLVESGGGLVQAGGSLRLSCAGSGHIFRQYAMGWYRQAPGKERELVAAITSGGSTYYADSVKGRFTISRDNAKNTVYLQMNSLKPEDTAVYYCATRPGGDRPIGYDYWGQGTQVTVSS”: the “polyreactivity (PSR sort gate)” value was “low polyreactivity”.
With “QVQLVESGGGLVQAGGSLRLSCAASGRTFAFNTMGWYRQAPGKERELVDAIRFSAGSTYYADSVKGRFTISRDNAKNTVYLQMNSLKPEDTAVYYCAASYGDRGGWGPGVDYWGQGTQVTVSS” the entry was “low polyreactivity”; with “QVQLVESGGGLVQAGGSLRLSCAASGSIFDDYAMGWYRQAPGKERELVAAITSGGSTYYADSVKGRFTISRDNAKNTVYLQMNSLKPEDTAVYYCAAPENKSDEYDYWGQGTQVTVSS”, “low polyreactivity”.
The same measure for “QVQLVESGGGLVQAGGSLRLSCAASGRIFRSIAMGWYRQSPGKERELVAVINSDDSTYYADSVKGRFTISRDNAKNTVYLQMNSLKPEDTAVYYCAAEPQYTRHMDSWGQGTQVTVSS”: “low polyreactivity”.
On to “QVQLVESGGGLDQAGGSLRLSCAASGNTLNYYTMGWYRQAPGKEREFVAAISWRGSRTYYADSVKGRFTISRDNAKNTVYLQMNRLKQEDTAVYYCATARYGYYGWTPYGDYIFDYWGQGTQVTVSS”, for which the “polyreactivity (PSR sort gate)” value is “high polyreactivity”.
With “QVQIVESGGGLVQAGGSLRLSCAASGSTFYPNAMGWYRQAPGKERELVAAISRGTRTKYADSVKGRFTISRDNAKNTVYLQINSLKPEDTAVYYCAADTGKGLDWGQGTHVTVSS” the entry was “high polyreactivity”; with “QVQLVESGGGLDQAGVSLRLSCAASGSTFRIYAMGWYRPAPGKERELVAAISRSGGSTYYADSVKGRFTISRDNAKNTVYLQMNSLKPEDTAVYYCAALSVASRWFGRGTGGYWGQGTQVTVSS”, “high polyreactivity”.
With “QVQLVESGGGLVQAGGSLRLSCAASGRTFFLYALGWYRQATGKERELFARISTSGGGTYYADSVKGRFTISRDHAKNTVYLQMISLKPEDTAVYYCAARTDRGQRRAGGYDFWGQGTQVTVSS” the entry was “high polyreactivity”; with “QVQLVESGGGLVQAGGSLRLSCAASGSISVHYAMGWYRQAPGKERELVAAISRRGGSTYYADSVKGRFTISRDNAMNTVYLQMNSLKPEDTAVYYCNASYYSVIQQTWYDYWGQVTQVTVSS”, “high polyreactivity”; with “QVQLVESGGGLVQAGGSLRLSCAASGSTFGSYAMGLYRQAPGKERELVAAITQIGGSTYYADSVKGRFTISRDNAKNTVYLQMNSLKPEDTAVYYCAVTAGRGGYPQGGVTRGYWGQGTQVTVSS”, “high polyreactivity”.
The same measure for “QVQLVESGGGLVQAGGSLRLSCAASGLIFARNAMGWYRQAPGKERELVAAISRSGSTNYADSVKGRFTISRDNAKNTVYLQMNSLIPEDTAVYYCAAGPWGTGHYVQGPVYYYRYDYWGQGTQVTVSS”: “low polyreactivity”; for “QVHLQESGGGQVQAGGSLRLSCAASGSISYASGMGWYRQAPGTEREFVASIDPGAITNYADSVKGRFTISHDNAKNTVYLQMNSLKPEYTAVYYCAARVSTTDSHGYWGQGTQVTVSS”: “high polyreactivity”.
With “QVQLVESGGGLVQAGGSLRLSCAASGSTFAGYAMGWYRQEPGKERELVAAISGSGGTTYYADSVKGRFTISRDNAKNTVYLQMNSLKPEDNAVYYCAALRGRYYGGLGDYWGQGTQVTVSS”, the “polyreactivity (PSR sort gate)” value is given as “high polyreactivity”.
The same measure for “QVQLVESGGGLVQAGGSLRLSCAASGITFYRNAMGWYRQAPGKERELVAAISWSGGRTYYADSVKGRFTISRDNAKNTVYLQMNSLKPEDTAVYYCNKYTHYYDYDYWGQGTQVTVSS”: “high polyreactivity”; for “QVQLVESGGGLVQAGGSLRLTCAASGRTFVTNAMGWYRQAPGKERELVAAISWSGGDTYYADSVKGRFTISRDNAKYTVYLEMNSLKPEDTAVYYCAAYFWGVYFFGMDYWGQGTLVTVSS”: “low polyreactivity”; for “QVQLVESGGGLVQAGGSLRLSCAASGGIFSPNAMGWYRQAHGKERELVASISSNGGSTNYADSVKGRFTISRDNAKNTVYLQMNSLKPEDTAVYYCAGLQKRRSYWRPFYWGQGTQVTVSS”: “low polyreactivity”.
With “QVQLVESGGGLVQAGGSLRLSCAASGRTFRFNAMGWYRPAPGKEREFVAAITSGGGTYYADSVKGRFTISRDNAKNTVYLQMNSLKPEDTAVYYCATVGIVHHRLVAMDYWGQGTQVTVSS” the entry was “low polyreactivity”; with “QVQLVESGGGLVQAGGSLRLSCAASGSISFINAMGWYRQAPGKERELVAAITPGASTNYADSVKGRFTISRDNAKNTVYLQLNSLKPEDTAVYFCAAGWVSFEDWVLGSYYEYDYWGLGTQVTVSS”, “low polyreactivity”; with “QVQHVESGGCLLQAGGSLRLSCAASGSIFEPYTMGWYRQAPGKERELVAAITGSGGSTFYADSVKGRFTISRDNAKNTVYLQMNSLKPEVTALYYCNAYAYPYTDVDYWVQGTQVTVSS”, “low polyreactivity”.
With “QVQLVESGGGLVQAGGSLRLSCAASGRTFPYYAMGWYRQAPGKERELVAAITTNDGDTYYADSVKGRFTISRDNAKNTVYLQMNSLKPEDTAVYYCAADSGSTSEYEYWGQGTQVTVSS” the entry was “low polyreactivity”; with “QVQLVESGGGVVQAGGSLRLSCAASGSTFFYYAMGWYRQAPGKERELVATIRGSAGRTYYADSVKGRFTISRDHAKYTVYLQMNCLKPEDTAVYYCARRYWPGSAYWIYDYWGQGTQVTVSS”, “high polyreactivity”.

(Values after the nanobody polyreactivity screen of Harvey et al. (2022).)
